Measured values reported in patent US20230103631A1, “PEPTIDES AS SELECTIVE GIP RECEPTOR AGONISTS” (Sanofi, priority 2020, published 2023).
*1 amine or outer side, *2 acyl side, *3 side chain or, on linkers, in order; H or OH if unused. Where no end group is shown, it is not given here. Side-chain parts run from the residue outwards. [ ]: non-standard residue; d: D form. The star is where a group is joined. C20 diacid = O=C(O)CCCCCCCCCCCCCCCCCCC(=O)*; C18 diacid = O=C(O)CCCCCCCCCCCCCCCCC(=O)*; γGlu = O=C(O)[C@H](CCC(=O)[*:2])N[*:1]; NMeY = CN[C@@H](Cc1ccc(O)cc1)C(=O)O; AEEA = NCCOCCOCC(=O)O; Aib = CC(C)(N)C(=O)O

B1: SEQ ID NO: 12 (peptide)
peptide: Y[Aib]EGTFISDLSI[Aib]K([AEEA-AEEA-AEEA-γGlu-C18 diacid])DRIHQEEFIEWLLAQGPSSGAPPPS-NH2
modifications: N-terminus assumed
SMILES: CC[C@H](C)[C@H](NC(=O)[C@H](Cc1ccccc1)NC(=O)[C@H](CCC(=O)O)NC(=O)[C@H](CCC(=O)O)NC(=O)[C@H](CCC(N)=O)NC(=O)[C@H](Cc1c[nH]cn1)NC(=O)[C@@H](NC(=O)[C@H](CCCNC(=N)N)NC(=O)[C@H](CC(=O)O)NC(=O)[C@H](CCCCNC(=O)COCCOCCNC(=O)COCCOCCNC(=O)COCCOCCNC(=O)CC[C@H](NC(=O)CCCCCCCCCCCCCCCCC(=O)O)C(=O)O)NC(=O)C(C)(C)NC(=O)[C@@H](NC(=O)[C@H](CO)NC(=O)[C@H](CC(C)C)NC(=O)[C@H](CC(=O)O)NC(=O)[C@H](CO)NC(=O)[C@@H](NC(=O)[C@H](Cc1ccccc1)NC(=O)[C@@H](NC(=O)CNC(=O)[C@H](CCC(=O)O)NC(=O)C(C)(C)NC(=O)[C@@H](N)Cc1ccc(O)cc1)[C@@H](C)O)[C@@H](C)CC)[C@@H](C)CC)[C@@H](C)CC)C(=O)N[C@@H](CCC(=O)O)C(=O)N[C@@H](Cc1c[nH]c2ccccc12)C(=O)N[C@@H](CC(C)C)C(=O)N[C@@H](CC(C)C)C(=O)N[C@@H](C)C(=O)N[C@@H](CCC(N)=O)C(=O)NCC(=O)N1CCC[C@H]1C(=O)N[C@@H](CO)C(=O)N[C@@H](CO)C(=O)NCC(=O)N[C@@H](C)C(=O)N1CCC[C@H]1C(=O)N1CCC[C@H]1C(=O)N1CCC[C@H]1C(=O)N[C@@H](CO)C(N)=O
B2: SEQ ID NO: 14 (peptide)
peptide: Y[Aib]EGTFISDLSI[Aib]K([AEEA-AEEA-γGlu-γGlu-C18 diacid])DRIHQEEFIEWLLAQGPSSGAPPPS-NH2
modifications: N-terminus assumed
SMILES: CC[C@H](C)[C@H](NC(=O)[C@H](Cc1ccccc1)NC(=O)[C@H](CCC(=O)O)NC(=O)[C@H](CCC(=O)O)NC(=O)[C@H](CCC(N)=O)NC(=O)[C@H](Cc1c[nH]cn1)NC(=O)[C@@H](NC(=O)[C@H](CCCNC(=N)N)NC(=O)[C@H](CC(=O)O)NC(=O)[C@H](CCCCNC(=O)COCCOCCNC(=O)COCCOCCNC(=O)CC[C@H](NC(=O)CC[C@H](NC(=O)CCCCCCCCCCCCCCCCC(=O)O)C(=O)O)C(=O)O)NC(=O)C(C)(C)NC(=O)[C@@H](NC(=O)[C@H](CO)NC(=O)[C@H](CC(C)C)NC(=O)[C@H](CC(=O)O)NC(=O)[C@H](CO)NC(=O)[C@@H](NC(=O)[C@H](Cc1ccccc1)NC(=O)[C@@H](NC(=O)CNC(=O)[C@H](CCC(=O)O)NC(=O)C(C)(C)NC(=O)[C@@H](N)Cc1ccc(O)cc1)[C@@H](C)O)[C@@H](C)CC)[C@@H](C)CC)[C@@H](C)CC)C(=O)N[C@@H](CCC(=O)O)C(=O)N[C@@H](Cc1c[nH]c2ccccc12)C(=O)N[C@@H](CC(C)C)C(=O)N[C@@H](CC(C)C)C(=O)N[C@@H](C)C(=O)N[C@@H](CCC(N)=O)C(=O)NCC(=O)N1CCC[C@H]1C(=O)N[C@@H](CO)C(=O)N[C@@H](CO)C(=O)NCC(=O)N[C@@H](C)C(=O)N1CCC[C@H]1C(=O)N1CCC[C@H]1C(=O)N1CCC[C@H]1C(=O)N[C@@H](CO)C(N)=O
B3: SEQ ID NO: 13 (peptide)
peptide: [NMeY][Aib]EGTFISDLSI[Aib]K([AEEA-AEEA-γGlu-C18 diacid])DRIHQEEFIEWLLAQGPSSGAPPPS-NH2
modifications: N-terminus assumed
SMILES: CC[C@H](C)[C@H](NC(=O)[C@H](Cc1ccccc1)NC(=O)[C@H](CCC(=O)O)NC(=O)[C@H](CCC(=O)O)NC(=O)[C@H](CCC(N)=O)NC(=O)[C@H](Cc1c[nH]cn1)NC(=O)[C@@H](NC(=O)[C@H](CCCNC(=N)N)NC(=O)[C@H](CC(=O)O)NC(=O)[C@H](CCCCNC(=O)COCCOCCNC(=O)COCCOCCNC(=O)CC[C@H](NC(=O)CCCCCCCCCCCCCCCCC(=O)O)C(=O)O)NC(=O)C(C)(C)NC(=O)[C@@H](NC(=O)[C@H](CO)NC(=O)[C@H](CC(C)C)NC(=O)[C@H](CC(=O)O)NC(=O)[C@H](CO)NC(=O)[C@@H](NC(=O)[C@H](Cc1ccccc1)NC(=O)[C@@H](NC(=O)CNC(=O)[C@H](CCC(=O)O)NC(=O)C(C)(C)NC(=O)[C@H](Cc1ccc(O)cc1)NC)[C@@H](C)O)[C@@H](C)CC)[C@@H](C)CC)[C@@H](C)CC)C(=O)N[C@@H](CCC(=O)O)C(=O)N[C@@H](Cc1c[nH]c2ccccc12)C(=O)N[C@@H](CC(C)C)C(=O)N[C@@H](CC(C)C)C(=O)N[C@@H](C)C(=O)N[C@@H](CCC(N)=O)C(=O)NCC(=O)N1CCC[C@H]1C(=O)N[C@@H](CO)C(=O)N[C@@H](CO)C(=O)NCC(=O)N[C@@H](C)C(=O)N1CCC[C@H]1C(=O)N1CCC[C@H]1C(=O)N1CCC[C@H]1C(=O)N[C@@H](CO)C(N)=O
B4: SEQ ID NO: 15 (peptide)
peptide: Y[Aib]EGTFISDLSI[Aib]K([AEEA-AEEA-γGlu-γGlu-C20 diacid])DRIHQEEFIEWLLAQGPSSGAPPPS-NH2
modifications: N-terminus assumed
SMILES: CC[C@H](C)[C@H](NC(=O)[C@H](Cc1ccccc1)NC(=O)[C@H](CCC(=O)O)NC(=O)[C@H](CCC(=O)O)NC(=O)[C@H](CCC(N)=O)NC(=O)[C@H](Cc1c[nH]cn1)NC(=O)[C@@H](NC(=O)[C@H](CCCNC(=N)N)NC(=O)[C@H](CC(=O)O)NC(=O)[C@H](CCCCNC(=O)COCCOCCNC(=O)COCCOCCNC(=O)CC[C@H](NC(=O)CC[C@H](NC(=O)CCCCCCCCCCCCCCCCCCC(=O)O)C(=O)O)C(=O)O)NC(=O)C(C)(C)NC(=O)[C@@H](NC(=O)[C@H](CO)NC(=O)[C@H](CC(C)C)NC(=O)[C@H](CC(=O)O)NC(=O)[C@H](CO)NC(=O)[C@@H](NC(=O)[C@H](Cc1ccccc1)NC(=O)[C@@H](NC(=O)CNC(=O)[C@H](CCC(=O)O)NC(=O)C(C)(C)NC(=O)[C@@H](N)Cc1ccc(O)cc1)[C@@H](C)O)[C@@H](C)CC)[C@@H](C)CC)[C@@H](C)CC)C(=O)N[C@@H](CCC(=O)O)C(=O)N[C@@H](Cc1c[nH]c2ccccc12)C(=O)N[C@@H](CC(C)C)C(=O)N[C@@H](CC(C)C)C(=O)N[C@@H](C)C(=O)N[C@@H](CCC(N)=O)C(=O)NCC(=O)N1CCC[C@H]1C(=O)N[C@@H](CO)C(=O)N[C@@H](CO)C(=O)NCC(=O)N[C@@H](C)C(=O)N1CCC[C@H]1C(=O)N1CCC[C@H]1C(=O)N1CCC[C@H]1C(=O)N[C@@H](CO)C(N)=O
B5: SEQ ID NO: 16 (peptide)
peptide: Y[Aib]EGTFISDLSI[Aib]K([Gly-Gly-Gly-γGlu-C18 diacid])DRIHQEEFIEWLLAQGPSSGAPPPS-NH2
modifications: N-terminus assumed
SMILES: CC[C@H](C)[C@H](NC(=O)[C@H](Cc1ccccc1)NC(=O)[C@H](CCC(=O)O)NC(=O)[C@H](CCC(=O)O)NC(=O)[C@H](CCC(N)=O)NC(=O)[C@H](Cc1c[nH]cn1)NC(=O)[C@@H](NC(=O)[C@H](CCCNC(=N)N)NC(=O)[C@H](CC(=O)O)NC(=O)[C@H](CCCCNC(=O)CNC(=O)CNC(=O)CNC(=O)CC[C@H](NC(=O)CCCCCCCCCCCCCCCCC(=O)O)C(=O)O)NC(=O)C(C)(C)NC(=O)[C@@H](NC(=O)[C@H](CO)NC(=O)[C@H](CC(C)C)NC(=O)[C@H](CC(=O)O)NC(=O)[C@H](CO)NC(=O)[C@@H](NC(=O)[C@H](Cc1ccccc1)NC(=O)[C@@H](NC(=O)CNC(=O)[C@H](CCC(=O)O)NC(=O)C(C)(C)NC(=O)[C@@H](N)Cc1ccc(O)cc1)[C@@H](C)O)[C@@H](C)CC)[C@@H](C)CC)[C@@H](C)CC)C(=O)N[C@@H](CCC(=O)O)C(=O)N[C@@H](Cc1c[nH]c2ccccc12)C(=O)N[C@@H](CC(C)C)C(=O)N[C@@H](CC(C)C)C(=O)N[C@@H](C)C(=O)N[C@@H](CCC(N)=O)C(=O)NCC(=O)N1CCC[C@H]1C(=O)N[C@@H](CO)C(=O)N[C@@H](CO)C(=O)NCC(=O)N[C@@H](C)C(=O)N1CCC[C@H]1C(=O)N1CCC[C@H]1C(=O)N1CCC[C@H]1C(=O)N[C@@H](CO)C(N)=O

Biological target: T1, human GIP receptor (human, UniProt P48546 22-466)
T1 sequence (looked up): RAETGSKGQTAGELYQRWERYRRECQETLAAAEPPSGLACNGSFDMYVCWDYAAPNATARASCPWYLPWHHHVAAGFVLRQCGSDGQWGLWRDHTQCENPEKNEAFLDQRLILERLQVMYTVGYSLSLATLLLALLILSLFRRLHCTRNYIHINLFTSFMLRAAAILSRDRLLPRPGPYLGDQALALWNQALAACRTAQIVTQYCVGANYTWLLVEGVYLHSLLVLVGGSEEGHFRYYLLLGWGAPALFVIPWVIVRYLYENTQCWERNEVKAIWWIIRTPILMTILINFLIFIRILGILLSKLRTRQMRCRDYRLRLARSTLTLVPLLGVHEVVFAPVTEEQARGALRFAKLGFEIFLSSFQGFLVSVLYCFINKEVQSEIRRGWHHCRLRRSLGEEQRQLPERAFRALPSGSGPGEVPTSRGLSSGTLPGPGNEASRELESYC
Experiment: cell-based or functional assay

Row | Binder | EC50 hGIPR 0% HSA, cAMP in HEK-293 cells | EC50 hGIPR 0.1% HSA, cAMP in HEK-293 cells
1 | B1 | 0.26 pM | 2.38 pM
2 | B2 | 0.23 pM | 1.56 pM
3 | B3 | 0.2 pM | 1.76 pM
4 | B4 | 0.34 pM | 7.65 pM
5 | B5 | 0.19 pM | 2.55 pM

Biological target: human GLP-1 receptor (human, UniProt P43220 24-463)
Experiment: cell-based or functional assay

Row | Binder | EC50 hGLP-1R 0% HSA, cAMP in HEK-293 cells
6 | B1 | > 10 nM
7 | B2 | > 10 nM
8 | B3 | > 10 nM
9 | B4 | > 10 nM
10 | B5 | > 10 nM
